Assays:
HLA-A*2401 (human) = assay: competition vs 125I-labelled probe peptide, purified HLA, gel filtration; conditions: scale: ratio to standard peptide
HLA-A*0301 (human) [1] = assay: competition with 125I-labelled probe peptide for purified HLA-A*0301
HLA-A*0201 (human) = assay: 125I-probe peptide inhibition, purified HLA
HLA-A*6801 (human) = assay: 125I-probe peptide inhibition, purified HLA
HLA-A*0206 (human) = assay: 125I-probe peptide inhibition, purified HLA
HLA-A*0301 (human) [2] = assay: 125I-probe peptide inhibition, purified HLA

Row | Substance | relative binding ratio (HLA-A*2401 (human)) | further results
1 | p53 peptide, position 311, 10 amino acids |  | relative binding ratio (HLA-A*0301 (human) [1]): 0.0035
2 | p53.129 (9-mer) (peptide) |  | IC50 (HLA-A*0201 (human)): 735 nM
3 | p53 peptide, position 337, 8 amino acids | -0.0004 | 
4 | p53 peptide, position 106, 8 amino acids | 0.028 | 
5 | p53 peptide, position 18, 8 amino acids | 0.0016 | 
6 | p53.273 (8-mer) (peptide) |  | IC50 (HLA-A*6801 (human)): 571 nM
7 | p53 peptide, position 117, 10 amino acids | 0.0001 | 
8 | p53 peptide, position 22, 11 amino acids | -0.0003 | 
9 | p53.65 (10-mer) (peptide) |  | IC50 (HLA-A*0206 (human)): 841 nM
10 | p53 peptide, position 102, 8 amino acids | 0.11 | 
11 | p53 peptide, position 106, 9 amino acids | 0.02 | 
12 | p53 peptide, position 204, 9 amino acids | 0.001 | 
13 | p53 peptide, position 43, 11 amino acids | 0.0023 | 
14 | p53.240 (9-mer …) (peptide) |  | IC50 (HLA-A*0301 (human) [2]): 550 nM
15 | p53 peptide, position 102, 10 amino acids | 0.12 | 

Continued, in another order:

Row | relative binding ratio (HLA-A*2401 (human)) | Substance | further results
16 | 5.1 | p53 peptide, position 125, 10 amino acids | 
17 | 0.001 | p53 peptide, position 18, 9 amino acids | 
18 | 0.0001 | p53 peptide, position 340, 9 amino acids | 
